Legend:
SRSF1 RS [1] = target: T1, SRSF1 RS (human, UniProt Q07955 199-248); experiment: FP; 8-mer buffer, 35 mM K3PO4; FP, 10 nM RNA, 37 C 30 min then 25 C 10 min; 21-mers: 25 mM KCl, 0.25 M Arg/Glu, 20 mM Tris-HCl pH 7.5, 0.1 mM EDTA, 0.1 mM TCEP, 0.02% Tween 20; 8-mers: 35 mM; conditions: protein: recombinant, tags: none (SUMO cleaved), label: 5' fluorescein
T1 chain: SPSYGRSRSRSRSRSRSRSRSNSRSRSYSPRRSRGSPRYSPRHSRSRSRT

SRSF1 RS [2] = target: T1, SRSF1 RS; experiment: FP; FP, 10 nM RNA, 37 C 30 min then 25 C 10 min; 21-mers: 25 mM KCl, 0.25 M Arg/Glu, 20 mM Tris-HCl pH 7.5, 0.1 mM EDTA, 0.1 mM TCEP, 0.02% Tween 20; 8-mers: 35 mM; conditions: protein: recombinant, tags: none (SUMO cleaved), label: 5' fluorescein
SRSF1 RRM tandem [3] = target: T2, SRSF1 RRM tandem (human, UniProt Q07955 1-196); experiment: as above; conditions: protein: recombinant, tags: none (SUMO cleaved), label: 5' fluorescein
SRSF1 full-length = SRSF1 full-length (human, UniProt Q07955 1-248); experiment: as above; conditions: protein: recombinant, tags: none (pSMT3 His-SUMO, Ulp1 cleaved), label: 5' fluorescein
SRSF1 RS [4] = target: T1, SRSF1 RS; experiment: STD NMR; 0.5 mM RNA, 10 uM RS, D2O; no signal above noise; FP, 10 nM RNA, 37 C 30 min then 25 C 10 min; 21-mers: 25 mM KCl, 0.25 M Arg/Glu, 20 mM Tris-HCl pH 7.5, 0.1 mM EDTA, 0.1 mM TCEP, 0.02% Tween 20; 8-mers: 35 mM; conditions: protein: recombinant; tags: none (SUMO cleaved)
RRM tandem R173A = RRM tandem R173A (human, UniProt Q07955 1-196, R173A); experiment: FP; FP, 10 nM RNA, 37 C 30 min then 25 C 10 min; 21-mers: 25 mM KCl, 0.25 M Arg/Glu, 20 mM Tris-HCl pH 7.5, 0.1 mM EDTA, 0.1 mM TCEP, 0.02% Tween 20; 8-mers: 35 mM; conditions: protein: recombinant; tags: SUMO; label: 5' fluorescein; G-quadruplex (parallel)
RRM tandem Y19A = RRM tandem Y19A (human, UniProt Q07955 1-196, Y19A); experiment: as above; conditions: protein: recombinant; tags: SUMO; label: 5' fluorescein; G-quadruplex (parallel)
RRM tandem W134A = RRM tandem W134A (human, UniProt Q07955 1-196, W134A); experiment: as above; conditions: protein: recombinant; tags: SUMO; label: 5' fluorescein; G-quadruplex (parallel)
RRM tandem WT (Table 3) = RRM tandem WT (Table 3) (human, UniProt Q07955 1-196); experiment: as above; conditions: protein: recombinant; tags: SUMO; label: 5' fluorescein; G-quadruplex (parallel)
RS mutant KS = RS mutant KS (human, UniProt Q07955 198-248, R198K;R204K;R206K;R208K;R210K;R212K;R214K;R216K;R218K;R222K;R224K;R229K;R230K;R2 …); experiment: as above; conditions: protein: recombinant; tags: none (SUMO cleaved); label: 5' fluorescein; G-quadruplex (parallel)
RRM1/RRM2 linker = target: T3, RRM1/RRM2 linker (human, UniProt Q07955 92-120); experiment: as above; conditions: protein: recombinant; label: 5' fluorescein; G-quadruplex (parallel)
T3 chain: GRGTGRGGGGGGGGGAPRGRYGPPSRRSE

RRM tandem F58A = RRM tandem F58A (human, UniProt Q07955 1-196, F58A); experiment: as above; conditions: protein: recombinant; tags: SUMO; label: 5' fluorescein; G-quadruplex (parallel)
RRM tandem Q135A = RRM tandem Q135A (human, UniProt Q07955 1-196, Q135A); experiment: as above; conditions: protein: recombinant; tags: SUMO; label: 5' fluorescein; G-quadruplex (parallel)
RRM tandem F56A = RRM tandem F56A (human, UniProt Q07955 1-196, F56A); experiment: as above; conditions: protein: recombinant; tags: SUMO; label: 5' fluorescein; G-quadruplex (parallel)
RS mutant RA = RS mutant RA (human, UniProt Q07955 198-248, S199A;S201A;S205A;S207A;S209A;S211A;S213A;S215A;S217A;S219A;S221A;S223A;S225A;S2 …); experiment: FP; similar affinity to RS; FP, 10 nM RNA, 37 C 30 min then 25 C 10 min; 21-mers: 25 mM KCl, 0.25 M Arg/Glu, 20 mM Tris-HCl pH 7.5, 0.1 mM EDTA, 0.1 mM TCEP, 0.02% Tween 20; 8-mers: 35 mM; conditions: protein: recombinant; tags: none (SUMO cleaved); label: 5' fluorescein; G-quadruplex (parallel)
SRSF1 RRM tandem [5] = target: T2, SRSF1 RRM tandem; experiment: FP; FP, 10 nM RNA, 37 C 30 min then 25 C 10 min; 21-mers: 25 mM KCl, 0.25 M Arg/Glu, 20 mM Tris-HCl pH 7.5, 0.1 mM EDTA, 0.1 mM TCEP, 0.02% Tween 20; 8-mers: 35 mM; conditions: protein: recombinant; tags: none (SUMO cleaved); label: 5' fluorescein
SRSF1 RS [6] = target: T1, SRSF1 RS; experiment: STD NMR; 0.5 mM RNA, 10 uM RS, D2O; strongest signal; FP, 10 nM RNA, 37 C 30 min then 25 C 10 min; 21-mers: 25 mM KCl, 0.25 M Arg/Glu, 20 mM Tris-HCl pH 7.5, 0.1 mM EDTA, 0.1 mM TCEP, 0.02% Tween 20; 8-mers: 35 mM; conditions: protein: recombinant; tags: none (SUMO cleaved)

T2 sequence (Q07955 1-196): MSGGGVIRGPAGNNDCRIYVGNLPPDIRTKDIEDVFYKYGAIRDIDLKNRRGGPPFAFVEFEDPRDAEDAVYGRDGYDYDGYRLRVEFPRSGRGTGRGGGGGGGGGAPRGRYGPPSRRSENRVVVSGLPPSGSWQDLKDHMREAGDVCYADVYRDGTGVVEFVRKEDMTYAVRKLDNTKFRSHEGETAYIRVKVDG
Sequence of RRM tandem WT (Table 3) (Q07955 1-196): as above
Sequence of RRM tandem Y19A (Q07955 1-196 Y19A): as the sequence (Q07955 1-196) above, with Y19A counted along it
Sequence of RRM tandem W134A (Q07955 1-196 W134A): as the sequence (Q07955 1-196) above, with W134A counted along it
Sequence of RRM tandem R173A (Q07955 1-196 R173A): as the sequence (Q07955 1-196) above, with R173A counted along it
Sequence of RRM tandem F58A (Q07955 1-196 F58A): as the sequence (Q07955 1-196) above, with F58A counted along it
Sequence of RRM tandem Q135A (Q07955 1-196 Q135A): as the sequence (Q07955 1-196) above, with Q135A counted along it
Sequence of RRM tandem F56A (Q07955 1-196 F56A): as the sequence (Q07955 1-196) above, with F56A counted along it

B1: 8U (ssRNA)
RNA: UUUUUUUU
B1 was tested, and the Kd (SRSF1 RS [1]) was 550 ± 21 nM.

B2: 8A (ssRNA)
RNA: AAAAAAAA
B2 was tested, and the Kd (SRSF1 RS [1]) was 610 ± 15 nM.

B3: 4CU (ssRNA)
RNA: CUCUCUCU
For B3, the Kd (SRSF1 RS [1]) was 470 ± 12 nM.

B4: MMP16 GQ (structured_RNA)
RNA: UUGGGAGGGAGGGAGAGGGUU
With B4 the Kd (SRSF1 RS [2]; G-quadruplex) was 150 ± 10 nM, the Kd (SRSF1 RRM tandem [3]; G-quadruplex) was 3500 ± 490 nM and the Kd (SRSF1 full-length; G-quadruplex) was 5.9 ± 0.6 nM.

B5: UUU 3-mer (ssRNA)
RNA: UUU
B5: no binding (SRSF1 RS [4]).

B6: TERRA GQ (structured_RNA)
RNA: UGGGUUAGGGUUAGGGUUAGGG
Work on B6 yielded a Kd (SRSF1 RS [2]; G-quadruplex) of 26 ± 2 nM, a Kd (SRSF1 RRM tandem [3]; G-quadruplex) of 3200 ± 290 nM and a Kd (SRSF1 full-length; G-quadruplex) of 4.6 ± 0.5 nM.

B7: ARPC2 GQ (structured_RNA)
RNA: GGGGGCUGGGCGGGGACCGGG
B7 showed a Kd (SRSF1 RS [2]; G-quadruplex (parallel)) of 250 ± 22 nM, a Kd (RRM tandem R173A) of 140 ± 12 nM and a Kd (RRM tandem Y19A) of 1800 ± 160 nM. For the same binder, the Kd (RRM tandem W134A) was 1200 ± 90 nM, the Kd (RRM tandem WT (Table 3)) was 130 ± 11 nM and the Kd (SRSF1 RRM tandem [3]; G-quadruplex (parallel)) was 220 ± 19 nM. For the same binder, the binding result (RS mutant KS) was “no binding”, the binding result (RRM1/RRM2 linker) was “no binding” and the Kd (RRM tandem F58A) was 1500 ± 80 nM. It also gave a Kd (SRSF1 full-length; G-quadruplex (parallel)) of 3.6 ± 0.7 nM, a Kd (RRM tandem Q135A) of 350 ± 20 nM and a Kd (RRM tandem F56A) of 7000 ± 1500 nM. B7: binds (RS mutant RA).

B8: 4GA (ssRNA)
RNA: GAGAGAGA
B8 was tested, and the Kd (SRSF1 RS [1]) was 83 ± 3 nM.

B9: 21-mer GA (ssRNA)
RNA: GAGAGAGAGAGAGAGAGAGAG
With B9 the Kd (SRSF1 RS [2]) was 210 ± 16 nM.

B10: 8G (structured_RNA)
RNA: GGGGGGGG
With B10 the Kd (SRSF1 RS [1]; intermolecular G-quadruplex) was 3 ± 0.8 nM.

B11: 21-mer CU (ssRNA)
RNA: CUCUCUCUCUCUCUCUCUCUC
B11 was tested, and the Kd (SRSF1 RS [2]) was 1400 ± 100 nM.

B12: GGG motif RNA (ssRNA)
RNA: UCAGAGGG
With B12 the binding signal (SRSF1 RRM tandem [5]) was ~3 fold weaker than GGA motif.

B13: AAA 3-mer (ssRNA)
RNA: AAA
B13: no binding (SRSF1 RS [4]).

B14: GGG 3-mer (ssRNA)
RNA: GGG
B14: binds (SRSF1 RS [6]).

Source: PMC11077049, “Unearthing a novel function of SRSF1 in binding and unfolding of RNA G-quadruplexes”
